This note sets out measurements from the nanobody polyreactivity screen of Harvey et al. (2022).

This data set can be described thus: yeast display, Sf9 membrane polyspecificity reagent, FACS + sequencing; frameworks hold sequencing errors. The essentials: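 Synthetic nanobody libraries on Saccharomyces cerevisiae BJ5465 were galactose-induced for 36–48 hours, stained 1 hour at 4 °C with 10% biotinylated, detergent-solubilized Sf9 membrane reagent and enriched on streptavidin microbeads. FACS then separated cells into low and high (top ~1%) gates by anti-HA (expression) and streptavidin (reagent binding) fluorescence. Genes were colony-PCR amplified, MiSeq 2 × 250 sequenced and CDR-length filtered. A clone's polyreactivity label is that of its gate of origin.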
For the sequence “QVQLVESGGGLVQAGGSLRLSCDASGSIFRGNAMGWYRQAPGKERELVATITNGGSTNYADSVKGRFTISRDNAKNTVYLQMNSLKPEDTAVYYCNADHSYHIASTRHVDYWGQGTQVTVSS”, the “polyreactivity (PSR sort gate)” value was “low polyreactivity”.
Regarding “QVQLVESGGGLVQAGGSLRLSCDASGSIFRSYAMGWYRQAPGKERELVASITRSSGSTYYADSVKGRFTISRDNAKNTVYLQMNSLKPEDTAVYYCAAYTGVRGYYYWGQGTQVTVSS”, the “polyreactivity (PSR sort gate)” value is listed as “high polyreactivity”.
To “QVQLVESGGGLVQAGGSLRLSCDASGSIFRYYGMGWYRQAPGKEREMVAVISYRGGSTYYADSVKGRFTISRDNAKNTVYLQMNSLKPEDTAVYYCIADDPSKLGYEHDYWGQGTQVTVSS” belongs “low polyreactivity”; to “QVQLVESGGGLVQAGGSLRLSCDASGSILVAYAIGWYRQAPGKEREFVAAISSVGNTYYADSVKGRFTISRDNAKNTVYLQMNSLKPEDTAVYYCNAVYRVWYAEWSTVGSPHDYWGQGTQVTVSS”, “low polyreactivity”.
In the case of “QVQLVESGGGLVQAGGSLRLSCDASGSTFGIYAMGCYRQAPGKERELVAANSRSGDSTYYADSVKGRFTISRDNAKNTVDLQMNSLKPEDTAVYYCAADSYRLRYWAVTTHRVQYDYWGQGTQVTVSS” it was “low polyreactivity”; in that of “QVQLVESGGGLVQAGGSLRLSCDASGSTFGPYTMGWYRQAPGKERELVATISSGGSTYYADSVKGRFTISRDNAKNTVYLQMNSLKPEETAVYYCAARYWSIYDYWGPGTQVTVSS”, “low polyreactivity”.
To “QVQLVESGGGLVQAGGSLRLSCDASGSTFISYAMGWFRQAPGKERELVAAISSGGGRTSYADSVKGRFTISRDNEKNTVYLQMNSLKPEDTAVYYCNTKKLPYAEGYWGQGTQVTVSS” belongs “low polyreactivity”.
“QVQLVESGGGLVQAGGSLRLSCDASGSTFRGNAMGWYRQAPGKEREFVASISRRGGRTNYADSVKGRFTISRDNAKNTVYLQMNSVKPEDTAVYYCAATTVPLGDYWGLGTQVTVSS”: the “polyreactivity (PSR sort gate)” value is “high polyreactivity”.
With “QVQLVESGGGLVQAGGSLRLSCDASGSTFSDYAMGWYRQAPGKERELVAAISDSGSGTYYADSVKGRFTISRDNAKNTVYLQMNSLKPEDTAVYYCNTDPRFAMDWGQGTQVTVSS”, the “polyreactivity (PSR sort gate)” value is “low polyreactivity”.
With “QVQLVESGGGLVQAGGSLRLSCDASGSTFTGYAMGWYRQAPGKERELVAAISRSGGSTSYADSVKGRFTISRDNAKNTVYLQMNSLKPEDTAGYYCAAQVQGTTRAKQRGGIGELDYWGQGTQVTVSS”, the “polyreactivity (PSR sort gate)” value is recorded as “low polyreactivity”.
To “QVQLVESGGGLVQAGGSLRLSCDASGSTFWYAMGWYIKAPGKEMDLVAAITARGGRTYYADSVKGRFTISRDNAKNTVYLQMNSLKPEDTAVYYCARLSYAGGQWIIGKYDYWGQGTQVTVSS” belongs “high polyreactivity”; to “QVQLVESGGGLVQAGGSLRLSCDASGSTFYLYKGWYRQAPGKERELVAAITSGGRTYYADSVKGRFTISRDNAKNSVYLQMNSLKPVVSAVYYCARPYSRAYDYWGEGTQVTVSS”, “high polyreactivity”; to “QVQLVESGGGLVQAGGSLRLSCDASGSTLVVNAMGWYRPAPGKERELVAAISDGGSTNYADSVKGRFTISRDNAMNTVYLQMNSLKPEDTADYYCAKDCETEVIDDYWGQGTQVTVSS”, “low polyreactivity”.
In the case of “QVQLVESGGGLVQAGGSLRLSCDASVSIFVANAMGWSRQATGKERELVAAITGRGSRTYYADSVKGRFTISRDNAKNTVYLQMNSLKPEDTAVYYCADRYTNYGGYYWGQGTQVTVSS” it was “high polyreactivity”.
In the case of “QVQLVESGGGLVQAGGSLRLSCGASGAIFSRYAMGWSRPAPGKERQLVAAITSSGGSTYYADSVKGRFTISRDNAKNTVYLQMNSLKPEDTAVYYCATQYAGPWGEYDYWGQGTQVTVSS” it was “low polyreactivity”; in that of “QVQLVESGGGLVQAGGSLRLSCGASGFSFTRTAMGWYRQAPGKERELVAAISRGGSTNYADSVKGRFTISRDNAKITVYFQMNSLNPEDPSLYFCAKVRTRATPGVDYYYWGQGSQVTVSS”, “high polyreactivity”; in that of “QVQLVESGGGLVQAGGSLRLSCGASGFTFDVYAMGWYRQAPGKERELVARIRWSGGSTSYADSVKGRFTISRDNAKNTVYVQMNSLKPEDTAVYYCNTRRIYVNSGRGDYWGQGTKVTVSS”, “low polyreactivity”.
Regarding “QVQLVESGGGLVQAGGSLRLSCGASGFTFQFYDRGGYRQAPGKEREFVATITWRAGSTYSADSVKGRFTISRDNAKNTVYLQMNSLKPEDTAVYYCNADYYRHSLDYDYVGYDYWGQGTQVTVSS”, the “polyreactivity (PSR sort gate)” value is “low polyreactivity”.
In the case of “QVQLVESGGGLVQAGGSLRLSCGASGFTFRPYAMGWYRQAPGKERELVAAITSGDSTNYADSVKGRFTISCDNAKNTVYLQMNSLKPEDTAVYYCAADSTGRPSVSYDYWGQGTQVTVSS” it was “low polyreactivity”.
In the case of “QVQLVESGGGLVQAGGSLRLSCGASGRIFGPYTMGWARQGPGKERELVARISRRGGSTYYADSVKGRFTISRDNAKNTVYLQMNSLKPEDTAVYYCARSQAVYDGWFAKFGYWGQGTQVTVSS” it was “low polyreactivity”; in that of “QVQLVESGGGLVQAGGSLRLSCGASGRIFTRYAMGWYRQAPGKERELVAAISYGGGGTYYADSVKGRFTISRDNAKNTVYLQINSLKPEDTAVYYCATDDPLSQINEQCMDYWGQGTQVTVSS”, “low polyreactivity”.
In the case of “QVQLVESGGGLVQAGGSLRLSCGASGRTFYRYDMGWYRQAPGKERELVASITSGGNTNYADSVKGRFTISRDNAKNTVYLQMNSLKPEDTAVYYCAKEWYRVQHYRLITEFDYWGQGTQVTVSS”, the “polyreactivity (PSR sort gate)” value is “high polyreactivity”.
In the case of “QVQLVESGGGLVQAGGSLRLSCGASGSIFKYYAMGWYREARGKERELVAAITWSGGRTNYADSVKGRFTISRDNAKNTVYLQMNSLKPEDTAVYYCAATRRRYRPYEYWGLGTQVTVSS” it was “high polyreactivity”; in that of “QVQLVESGGGLVQAGGSLRLSCGASGSTFAYYTMGWYRQAPAKERELVAAITSGGRTSYAESVKGRFTISRDNAKNTVYLQMNSLKPEDTAVYYCAKGRKPGYYYWGQGTQVTVSS”, “high polyreactivity”; in that of “QVQLVESGGGLVQAGGSLRLSCGASGSTFDHYAMGWYRQAPGKERELVAAITRSGGSTYYADSVKGRFTISRDNAKNTVYIQMNSLKPEDTAVYYCNARRWITSDYWGQGTQVTVSS”, “high polyreactivity”.
In the case of “QVQLVESGGGLVQAGGSLRLSCPASGFIFYDYAMGWYRQAPGKERELVAAISSGGSTNYADSVKGRFTISRDNAKNTVYLQMNSLKPEDTAVYYCAADDRSYATWKRDYDYWGQGTQVTVSS” it was “low polyreactivity”.
In the case of “QVQLVESGGGLVQAGGSLRLSCPASGFTFGSYAMGWYRQAPGKETEFVAVITRSGRTNYADSVKGRFTISRDNAKNTVYLQMNSLKPEDTAVYYCYADDVDDEVSPDLTEMDYWGQGTQVTVSS” it was “low polyreactivity”; in that of “QVQLVESGGGLVQAGGSLRLSCPASGFTFGYYAMGWYRQSPGKESELVATITSSGASTYADSVKGRFTISGDNAKNTVYLQMISLKPEDTAVYYCAADRLPSYWSWYGYDYWVQGTQVTVSS”, “high polyreactivity”.
As to “QVQLVESGGGLVQAGGSLRLSCPASGFTIRRNAMGCYRQAPGKERELVAAITRGGGSTYYADSVKGRFTISRDNAKNTVYLQMNSLKPEDTAVYYCSADGYYQYESWGQGTQVTVSS”, the “polyreactivity (PSR sort gate)” value is given as “high polyreactivity”.
In the case of “QVQLVESGGGLVQAGGSLRLSCPASGFYAMGWYRQAPGKERELVAAIRGSGSSTYYADSVKGRFTISRDNAKNTVYLQMNSLKPEDTAVYYCAKQGYLVWSGWRWYDYWGQGTQVTVSS” it was “low polyreactivity”; in that of “QVQLVESGGGLVQAGGSLRLSCPASGIIFDRNAMGWYRQAPVKERELVAAITGSGGSTYYADSVKGRFTISRDNAKNTVYLQMNSLKPEDTAVYYCAATYLSRWTLYDYWGQGTQVTVSS”, “high polyreactivity”.
In the case of “QVQLVESGGGLVQAGGSLRLSCPASGINFIFYAMAWYREAPGKERELVATIRRSGSTYYADSVKGRFTISRDNAKNTVYLQMNSLKPEDTAVYYCNARYPYSYGDYWGQGTQVTVSS” it was “high polyreactivity”; in that of “QVQLVESGGGLVQAGGSLRLSCPASGITFGTNAMGWYIQAPGKERELVAAISKRGSSTYYADSVKGRFTISRDNAKNTVYLQMNSLKPEDTAVYYCNVVDERTRNLSKFYYWGQGTQVTVSS”, “high polyreactivity”; in that of “QVQLVESGGGLVQAGGSLRLSCPASGLTFAYYTMGWYRQSPGKERELVADISRSGGSTYYADSVKGRFTISRDNAKNTVYLQMNSLKPEDSAVYYCAARANVYTKKRDYWGQGTQVTVSW”, “high polyreactivity”.
To “QVQLVESGGGLVQAGGSLRLSCPASGRIFDYYAMGRYRQAPGKERELVARITSGGTTNYADSVKGRFTISRDNAKNTVFLQMNSLKPEDTAVYYCNAQDYCDPLQMDYWGQGTQVTVSS” belongs “low polyreactivity”; to “QVQLVESGGGLVQAGGSLRLSCPASGRIFKWYAMGWYRPAPGKERELVAAISWSGGRTYYADSVKGRFTISRDNAKNTVYLQMHSVKPEDTAVYYCAAAIRYRNYVYLYDYWGQGTQVTVSS”, “high polyreactivity”.
For “QVQLVESGGGLVQAGGSLRLSCPASGRTFRYYAMGWYRQAPGKERELVAAITANGGSTFYADSVKGRFTISRDNAKNTVYLQMNSLKPEDTAVYYCAARFYTSSRYNYWGQGTQVTVSS”, the “polyreactivity (PSR sort gate)” value was “high polyreactivity”.
In the case of “QVQLVESGGGLVQAGGSLRLSCPASGRTFYRNAMGWYRQAPGKEREFVAVITWSTGTTYYADSVKGRFTISRDNAKNTVYLQMNSPKPEDTAVYYCAADSQPPHELYESIEHESWGQGTQVTVSS” it was “low polyreactivity”.
In the case of “QVQLVESGGGLVQAGGSLRLSCPASGRTSVINAMGWYRQAPGKETELVATITWSAASTYYADSVKGRFTISRDNAKNTVYLQMNSLKPEDTAVYYCATDSAQYGYDYWGQGTQVTVSS” it was “low polyreactivity”; in that of “QVQLVESGGGLVQAGGSLRLSCPASGSIFDRYAMGWYRQAPGKERELVAAISWSDSRTYYADSVKGRFTISRDNAKNTVYFQMNSLKPEDTAVYYCAADGSTWGDYRTYGYWGQGTQVTVSS”, “low polyreactivity”; in that of “QVQLVESGGGLVQAGGSLRLSCPASGSIFQGNAMGWYRQAPGKERELVAAISWSGDSTYYADSVKGRFTISRDNAKNTVYLQMNSLKPEDTAVYYCNAEWTRDFYEYDYWGQGTQVTVSS”, “low polyreactivity”.
